US20220048967A1 (published 2022)
Residue numbers refer to the chain shown, from its start. Numbered stars: 1 amine (or outer) side, 2 acyl side, 3 side chain; on linkers, the order of the positions; unused ones are H or OH. Square brackets hold non-standard residues; d marks the D form. Side chains are listed from the residue outwards. Ends that are not written are not given here. * marks the point of attachment. C20 diacid = O=C(O)CCCCCCCCCCCCCCCCCCC(=O)*; C18 diacid = O=C(O)CCCCCCCCCCCCCCCCC(=O)*; αMePhe(2-F) = C[C@](N)(Cc1ccccc1F)C(=O)O; γGlu = O=C(O)[C@H](CCC(=O)[*:2])N[*:1]; Desaminohistidyl = O=C(CCc1c[nH]cn1)*; Desaminotyrosyl = O=C(CCc1ccc(O)cc1)*; αMeF = C[C@](N)(Cc1ccccc1)C(=O)O; αMeP = C[C@@]1(C(=O)O)CCCN1; AEEA = NCCOCCOCC(=O)O; Aib = CC(C)(N)C(=O)O

T1: human gastric inhibitory peptide receptor (GIPR) (human, UniProt P48546 22-466)
T1 sequence (looked up): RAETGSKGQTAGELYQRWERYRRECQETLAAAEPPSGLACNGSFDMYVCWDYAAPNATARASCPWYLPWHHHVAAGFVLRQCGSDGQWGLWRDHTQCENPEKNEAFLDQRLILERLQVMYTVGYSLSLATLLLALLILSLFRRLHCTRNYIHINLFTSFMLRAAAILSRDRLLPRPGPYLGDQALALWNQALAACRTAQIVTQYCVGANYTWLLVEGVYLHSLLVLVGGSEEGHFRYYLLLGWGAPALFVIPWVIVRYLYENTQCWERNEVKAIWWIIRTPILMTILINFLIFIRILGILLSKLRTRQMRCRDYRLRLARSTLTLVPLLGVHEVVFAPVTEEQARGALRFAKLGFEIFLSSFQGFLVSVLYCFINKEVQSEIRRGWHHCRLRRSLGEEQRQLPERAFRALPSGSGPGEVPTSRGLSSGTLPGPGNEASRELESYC

B1: Example 220 (peptide)
peptide: Y[Aib]EGT[αMePhe(2-F)]TSDYSIXLDEK([AEEA-AEEA-γGlu-C18 diacid])AQ[Aib]EFI[dE]YLIEGG-NH2
modifications: not fully specified (residue 13); printed as Y-Aib-EGT-αMeF(2F)-TSDYSI-αMeF-LDEK((2-[2-(2-Amino-ethoxy)-ethoxy]-acetyl)2-(γ-Glu)-CO-(CH2)16-CO2H)AQ-Aib-EFI-(D-Glu)-YLIEGG-NH2
B2: Example 195 (peptide)
peptide: Y[αMeP]EGTFTSDYSILLDRK([AEEA-AEEA-γGlu-C20 diacid])AQQAFIEYLIEGGPSSGAPPPS-NH2
modifications: N-terminus assumed
SMILES: CC[C@H](C)[C@H](NC(=O)[C@H](CC(C)C)NC(=O)[C@H](Cc1ccc(O)cc1)NC(=O)[C@H](CCC(=O)O)NC(=O)[C@@H](NC(=O)[C@H](Cc1ccccc1)NC(=O)[C@H](C)NC(=O)[C@H](CCC(N)=O)NC(=O)[C@H](CCC(N)=O)NC(=O)[C@H](C)NC(=O)[C@H](CCCCNC(=O)COCCOCCNC(=O)COCCOCCNC(=O)CC[C@H](NC(=O)CCCCCCCCCCCCCCCCCCC(=O)O)C(=O)O)NC(=O)[C@H](CCCNC(=N)N)NC(=O)[C@H](CC(=O)O)NC(=O)[C@H](CC(C)C)NC(=O)[C@H](CC(C)C)NC(=O)[C@@H](NC(=O)[C@H](CO)NC(=O)[C@H](Cc1ccc(O)cc1)NC(=O)[C@H](CC(=O)O)NC(=O)[C@H](CO)NC(=O)[C@@H](NC(=O)[C@H](Cc1ccccc1)NC(=O)[C@@H](NC(=O)CNC(=O)[C@H](CCC(=O)O)NC(=O)[C@]1(C)CCCN1C(=O)[C@@H](N)Cc1ccc(O)cc1)[C@@H](C)O)[C@@H](C)O)[C@@H](C)CC)[C@@H](C)CC)C(=O)N[C@@H](CCC(=O)O)C(=O)NCC(=O)NCC(=O)N1CCC[C@H]1C(=O)N[C@@H](CO)C(=O)N[C@@H](CO)C(=O)NCC(=O)N[C@@H](C)C(=O)N1CCC[C@H]1C(=O)N1CCC[C@H]1C(=O)N1CCC[C@H]1C(=O)N[C@@H](CO)C(N)=O
B3: Example 197 (peptide)
peptide: Y[αMeP]EGTFTSDYSILLDEK([AEEA-AEEA-γGlu-C18 diacid])AQQAFIEYLIEGGPSSG-NH2
modifications: N-terminus assumed
SMILES: CC[C@H](C)[C@H](NC(=O)[C@H](CC(C)C)NC(=O)[C@H](Cc1ccc(O)cc1)NC(=O)[C@H](CCC(=O)O)NC(=O)[C@@H](NC(=O)[C@H](Cc1ccccc1)NC(=O)[C@H](C)NC(=O)[C@H](CCC(N)=O)NC(=O)[C@H](CCC(N)=O)NC(=O)[C@H](C)NC(=O)[C@H](CCCCNC(=O)COCCOCCNC(=O)COCCOCCNC(=O)CC[C@H](NC(=O)CCCCCCCCCCCCCCCCC(=O)O)C(=O)O)NC(=O)[C@H](CCC(=O)O)NC(=O)[C@H](CC(=O)O)NC(=O)[C@H](CC(C)C)NC(=O)[C@H](CC(C)C)NC(=O)[C@@H](NC(=O)[C@H](CO)NC(=O)[C@H](Cc1ccc(O)cc1)NC(=O)[C@H](CC(=O)O)NC(=O)[C@H](CO)NC(=O)[C@@H](NC(=O)[C@H](Cc1ccccc1)NC(=O)[C@@H](NC(=O)CNC(=O)[C@H](CCC(=O)O)NC(=O)[C@]1(C)CCCN1C(=O)[C@@H](N)Cc1ccc(O)cc1)[C@@H](C)O)[C@@H](C)O)[C@@H](C)CC)[C@@H](C)CC)C(=O)N[C@@H](CCC(=O)O)C(=O)NCC(=O)NCC(=O)N1CCC[C@H]1C(=O)N[C@@H](CO)C(=O)N[C@@H](CO)C(=O)NCC(N)=O
B4: Example 224 (peptide)
peptide: YXEGTXTSDYSIXLDEKAQXEFIXYLIEGGPSSGAPPPS
modifications: Y-Aib-EGT-αMeF(2F)-TSDYSI-Aib-LDEK((2-[2-(2-Amino-ethoxy)-ethoxy]-acetyl)2-(γ-Glu)-CO-(CH2)18-CO2H)AQ-Aib-EFI-(D-Glu)-YLIEGGPSSGAPPPS-NH2
B5: Example 234 (peptide)
peptide: B4 peptide with Y10X, X13L, E16X
modifications: Y-Aib-EGT-αMeF(2F)-TSD-4Pal-SILLD-Dab-K((2-[2-(2-Amino-ethoxy)-ethoxy]-acetyl)2-(γ-Glu)-CO-(CH2)16-CO2H)AQ-Aib-EFI-(D-Glu)-YLIEGGPSSGAPPPS-NH2
B6: Example 198 (peptide)
peptide: [dY][αMeP]EGTFTSDYSILLDEK([AEEA-AEEA-γGlu-C18 diacid])AQQAFIEYLIEGGPSSG-NH2
modifications: N-terminus assumed
SMILES: CC[C@H](C)[C@H](NC(=O)[C@H](CC(C)C)NC(=O)[C@H](Cc1ccc(O)cc1)NC(=O)[C@H](CCC(=O)O)NC(=O)[C@@H](NC(=O)[C@H](Cc1ccccc1)NC(=O)[C@H](C)NC(=O)[C@H](CCC(N)=O)NC(=O)[C@H](CCC(N)=O)NC(=O)[C@H](C)NC(=O)[C@H](CCCCNC(=O)COCCOCCNC(=O)COCCOCCNC(=O)CC[C@H](NC(=O)CCCCCCCCCCCCCCCCC(=O)O)C(=O)O)NC(=O)[C@H](CCC(=O)O)NC(=O)[C@H](CC(=O)O)NC(=O)[C@H](CC(C)C)NC(=O)[C@H](CC(C)C)NC(=O)[C@@H](NC(=O)[C@H](CO)NC(=O)[C@H](Cc1ccc(O)cc1)NC(=O)[C@H](CC(=O)O)NC(=O)[C@H](CO)NC(=O)[C@@H](NC(=O)[C@H](Cc1ccccc1)NC(=O)[C@@H](NC(=O)CNC(=O)[C@H](CCC(=O)O)NC(=O)[C@]1(C)CCCN1C(=O)[C@H](N)Cc1ccc(O)cc1)[C@@H](C)O)[C@@H](C)O)[C@@H](C)CC)[C@@H](C)CC)C(=O)N[C@@H](CCC(=O)O)C(=O)NCC(=O)NCC(=O)N1CCC[C@H]1C(=O)N[C@@H](CO)C(=O)N[C@@H](CO)C(=O)NCC(N)=O
B7: Example 196 (peptide)
peptide: Y[αMeP]EGTFTSDYSILLDRK([AEEA-AEEA-γGlu-C20 diacid])AQHAFIEYLIEGGPSSGAPPPS-NH2
modifications: N-terminus assumed
SMILES: CC[C@H](C)[C@H](NC(=O)[C@H](CC(C)C)NC(=O)[C@H](Cc1ccc(O)cc1)NC(=O)[C@H](CCC(=O)O)NC(=O)[C@@H](NC(=O)[C@H](Cc1ccccc1)NC(=O)[C@H](C)NC(=O)[C@H](Cc1c[nH]cn1)NC(=O)[C@H](CCC(N)=O)NC(=O)[C@H](C)NC(=O)[C@H](CCCCNC(=O)COCCOCCNC(=O)COCCOCCNC(=O)CC[C@H](NC(=O)CCCCCCCCCCCCCCCCCCC(=O)O)C(=O)O)NC(=O)[C@H](CCCNC(=N)N)NC(=O)[C@H](CC(=O)O)NC(=O)[C@H](CC(C)C)NC(=O)[C@H](CC(C)C)NC(=O)[C@@H](NC(=O)[C@H](CO)NC(=O)[C@H](Cc1ccc(O)cc1)NC(=O)[C@H](CC(=O)O)NC(=O)[C@H](CO)NC(=O)[C@@H](NC(=O)[C@H](Cc1ccccc1)NC(=O)[C@@H](NC(=O)CNC(=O)[C@H](CCC(=O)O)NC(=O)[C@]1(C)CCCN1C(=O)[C@@H](N)Cc1ccc(O)cc1)[C@@H](C)O)[C@@H](C)O)[C@@H](C)CC)[C@@H](C)CC)C(=O)N[C@@H](CCC(=O)O)C(=O)NCC(=O)NCC(=O)N1CCC[C@H]1C(=O)N[C@@H](CO)C(=O)N[C@@H](CO)C(=O)NCC(=O)N[C@@H](C)C(=O)N1CCC[C@H]1C(=O)N1CCC[C@H]1C(=O)N1CCC[C@H]1C(=O)N[C@@H](CO)C(N)=O
B8: Example 228 (peptide)
peptide: Y[Aib]EGT[αMeF]TSDYSIXLDKK([AEEA-AEEA-γGlu-C20 diacid])AQ[Aib]EFI[dE]YLIEGGPSSG-NH2
modifications: not fully specified (residue 13); printed as Y-Aib-EGT-αMeF-TSDYSI-αMeF-LDKK((2-[2-(2-Amino-ethoxy)-ethoxy]-acetyl)2-(γ-Glu)-CO-(CH2)18-CO2H)AQ-Aib-EFI-(D-Glu)-YLIEGGPSSG-NH2
B9: Example 219 (peptide)
peptide: Y[Aib]EGT[αMePhe(2-F)]TSDYSIXLDEK([AEEA-AEEA-γGlu-C18 diacid])AQ[Aib]EFI[dE]YLIEGGPSSG-NH2
modifications: not fully specified (residue 13); printed as Y-Aib-EGT-αMeF(2F)-TSDYSI-αMeF-LDEK((2-[2-(2-Amino-ethoxy)-ethoxy]-acetyl)2-(γ-Glu)-CO-(CH2)16-CO2H)AQ-Aib-EFI-(D-Glu)-YLIEGGPSSG-NH2

molecular target: T1, human gastric inhibitory peptide …; assay: cell-based or functional assay

Binder	hGIPR cAMP EC50 ratio	hGIPR cAMP Rel EC50 [nM]
B1	6.3	0.0315
B2	0.936	0.193
[Desaminotyrosyl][Aib]EGTFTSDYSILLDEK([AEEA-AEEA-γGlu-C20 diacid])AQQAFIEYLIEGGPSSGAPPPS-NH2 [Example 199]	< 0.00602	> 30
B3	0.855	0.211
[Desaminohistidyl][αMeP]EGTFTSDYSILLDEK([AEEA-AEEA-γGlu-C20 diacid])AQQAFIEYLIEGGPSSGAPPPS-NH2 [Example 201]	< 0.00602	> 30
B4	3.52	0.0545
B5	3.83	0.0372
B6	< 0.00602	> 30
B7	0.653	0.277
B8	3.86	0.0503
B9	5.86	0.0341
[Desaminotyrosyl]AEGTFTSDYSILLDEK([AEEA-AEEA-γGlu-C20 diacid])AQQAFIEYLIEGGPSSGAPPPS-NH2 [Example 200]	0.0146	12.3

molecular target: human GLP-1 receptor (GLP-1R) (human, UniProt P43220 24-463); assay: cell-based or functional assay

Binder	hGLP1R cAMP EC50 ratio	hGLP1R cAMP Rel EC50 [nM]
B1	1.36	0.0312
B2	0.602	0.0966
[Desaminotyrosyl][Aib]EGTFTSDYSILLDEK([AEEA-AEEA-γGlu-C20 diacid])AQQAFIEYLIEGGPSSGAPPPS-NH2 [Example 199]	1.11	0.0422
B3	0.189	0.248
[Desaminohistidyl][αMeP]EGTFTSDYSILLDEK([AEEA-AEEA-γGlu-C20 diacid])AQQAFIEYLIEGGPSSGAPPPS-NH2 [Example 201]	1.22	0.0385
B4	1.06	0.0349
B5	0.317	0.0926
B6	0.337	0.139
B7	0.332	0.175
B8	1.1	0.0282
B9	1.03	0.0403
[Desaminotyrosyl]AEGTFTSDYSILLDEK([AEEA-AEEA-γGlu-C20 diacid])AQQAFIEYLIEGGPSSGAPPPS-NH2 [Example 200]	0.573	0.0818
